This note sets out measurements from PMC11666773, “Development of mirror-image monobodies targeting the oncogenic BCR::ABL1 kinase” (Nature Communications, 2024).

Non-standard residues stand in square brackets, D forms with d. *: point of attachment. 5FAM = O=C1OC2(c3ccc(O)cc3Oc3cc(O)ccc32)c2ccc(C(=O)*)cc21

Broadly, the Kd is the constant that tells how readily two partners part at equilibrium. A word on the stoichiometry N: it is the number of molecules, sites or subunits per partner or assembly.

Data set [1] deals with T1, D-Abl SH2 domain (synthetic mirror-image SH2 domain of human BCR::ABL1) (human, UniProt P00519-2 141-240, all residues in D-configuration).
T1 chain: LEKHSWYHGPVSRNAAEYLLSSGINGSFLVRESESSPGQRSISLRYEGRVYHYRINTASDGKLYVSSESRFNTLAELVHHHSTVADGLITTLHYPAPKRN
The data set can be described thus: ITC. Background: Isothermal titration calorimetry measures the heat released or taken up as one component is titrated into another.

The target in data set [2] is D-Abl SH2 domain (synthetic mirror-image SH2 domain of human BCR::ABL1) (human) (UniProt P00519). Briefly: ITC; monobody in the syringe titrated to the SH2 domain, 20 mM HEPES pH 7.4, 150 mM NaCl, 0.5 mM TCEP-HCl, 25 °C, 1:1 binding model.
Data set [3] deals with the molecule itself. The data set can be described thus: crystal structure; L-DAM21 with D-Abl SH2 A198C; 0.16 M ammonium sulfate, 0.08 M sodium acetate pH 4.6, 20% PEG 4000, 20% glycerol; 100 K.
Data set [4] concerns the target T1, D-Abl SH2 domain (synthetic …). Briefly: ITC.
Data set [5] addresses T2, L-Abl SH2 domain (recombinant) (human).
T2 chain: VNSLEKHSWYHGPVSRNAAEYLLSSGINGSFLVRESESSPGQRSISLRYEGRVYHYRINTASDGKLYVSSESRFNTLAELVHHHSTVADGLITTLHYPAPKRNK
The data set can be described thus: ITC.

In data set [6] the target is T2, L-Abl SH2 domain (recombinant). Briefly: ITC; monobody in the syringe titrated to the SH2 domain, 20 mM HEPES pH 7.4, 150 mM NaCl, 0.5 mM TCEP-HCl, 25 °C, 1:1 binding model.
For data set [7], the target named is T3, biotinylated synthetic D-Abl SH2 domain (human, UniProt P00519-2 141-240, all residues in D-configuration; biotin (position not given)).
T3 chain: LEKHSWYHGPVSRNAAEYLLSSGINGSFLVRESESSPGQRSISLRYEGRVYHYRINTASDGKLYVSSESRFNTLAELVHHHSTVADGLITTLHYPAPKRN
Briefly: FACS; yeast surface display. On the technique in general: In flow cytometry, cells or beads pass a laser one at a time.

In data set [8] the target is T1, D-Abl SH2 domain (synthetic …). Briefly: ITC.
Data set [9] concerns the target T4, D-Abl SH2 domain (synthetic mirror-image SH2 domain of human BCR::ABL1) (human, UniProt P00519-2 141-240, all residues in D-configuration).
T4 construct: Mirror-image protein; also called D-Bcr-Abl SH2; D-SH2
T4 sequence: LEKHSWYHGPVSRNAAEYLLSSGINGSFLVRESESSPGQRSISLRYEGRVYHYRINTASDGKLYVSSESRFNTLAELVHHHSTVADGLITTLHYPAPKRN
Briefly: fluorescence polarisation; direct binding of the fluorescent D-pY peptide to D-Abl SH2 (Fig. S1); conditions not shown. The settings on record: both partners purified. Background: Polarisation of emitted light reports the rotation of a fluorescent probe.

B1: synthetic L-DAM27-XTEN (designed binder)
chain: ASSVPTKLEVVAATPTSLLISWDAPAVTVDHYVITYGETGGGGGSQEFEVPGSKSTATISGLKPGVDYTITVYAYEFYSGEYSHFSPISINYRTAEGPSTAEGPSTAEGPST
modifications: biotin at the N-terminus
As to B1, in data set [1], the Kd came out at 128 nM. The molecule also gave a stoichiometry N in [2] of 1.

B2: recombinant L-DAM27-XTEN (designed binder)
chain: ASSVPTKLEVVAATPTSLLISWDAPAVTVDHYVITYGETGGGGGSQEFEVPGSKSTATISGLKPGVDYTITVYAYEFYSGEYSHFSPISINYRTAEGPSTAEGPSTAEGPST
Turning to B2, in [1], the Kd is 97.6 nM. The same molecule had a stoichiometry N in data set [2] of 1.

B3: D-Abl SH2 A198C (synthetic D-Abl SH2 domain not desulfurized, cysteine at position 198) (domain or fragment, human)
chain: LEKHSWYHGPVSRNAAEYLLSSGINGSFLVRESESSPGQRSISLRYEGRVYHYRINTCSDGKLYVSSESRFNTLAELVHHHSTVADGLITTLHYPAPKRN
modifications: all residues in D-configuration
notes: SH2 domain of human ABL1 (BCR::ABL1); Found as a disulfide-bridged (Cys198) dimer in both crystal structures; also called D-SH2
Regarding B3, the binding result in [3] was “binds”.

B4: L-monobody DAM30.2 (recombinant) (designed binder)
chain: MAASSVPTKLEVVAATPTSLLISWDAPAVTVDHYVITYGETGAYVSGPQEFTVPGSKSTATISGLKPGVDYTITVYAYEFYSGEYSHFSPISINYRT
B4 had a Kd in data set [4] of 189 nM.

B5: synthetic D-DAM27-XTEN (mirror-image monobody) (designed binder)
chain: AASSVPTKLEVVAATPTSLLISWDAPAVTVDHYVITYGETGGGGGSQEFEVPGSKSTATISGLKPGVDYTITVYAYEFYSGEYSHFSPISINYRT
modifications: all residues in D-configuration; biotin at the N-terminus
In the case of B5, the Kd in [5] was found to be 125 nM. Moreover, the stoichiometry N in data set [6] is 1.

B6: L-monobody DAM30.1 (recombinant) (designed binder)
chain: MAASSVPTKLEVVAATPTSLLISWDAPAVTVDHYVITYGETGGGWYGQEFEVPGSKSTATISGLKPGVDYTITVYAYEFYSGEYSHFSPISINYRT
Turning to B6, in [4], the Kd came to 90.3 nM.

B7: monobody DAM27 displayed on yeast (designed binder)
chain: ASSVPTKLEVVAATPTSLLISWDAPAVTVDHYVITYGETGGGGGSQEFEVPGSKSTATISGLKPGVDYTITVYAYEFYSGEYSHFSPISINYRT
In [7], B7 displayed a Kd of 24 nM.

B8: L-monobody DAM27 (recombinant) (designed binder)
chain: ASSVPTKLEVVAATPTSLLISWDAPAVTVDHYVITYGETGGGGGSQEFEVPGSKSTATISGLKPGVDYTITVYAYEFYSGEYSHFSPISINYRT
In turn, B8 registered a Kd in [8] of 72.3 nM.

B9: L-monobody DAM28 (recombinant) (designed binder)
chain: MAASSVPTKLEVVAATPTSLLISWDAPAVTVDHYVITYGETGGNSPVQEFTVPGSKSTATISGLKPGVDYTITVYAYEYWEYEYSSYSPISINYRT
B9 yielded a dissociation constant Kd in [4] of 58.9 nM.

B10: L-monobody DAM26 (recombinant) (designed binder)
chain: MAASSVPTKLEVVAATPTSLLISWDAPAVTVDHYVITYGETGGNSPVQEFTVPGSKSTATISGLKPGVDYTITVYAYEFYSGEYSHFSPISINYRT
For B10, the Kd in data set [4] came to 249 nM.

B11: monobody DAM26 displayed on yeast (designed binder)
chain: MAASSVPTKLEVVAATPTSLLISWDAPAVTVDHYVITYGETGGNSPVQEFTVPGSKSTATISGLKPGVDYTITVYAYEFYSGEYSHFSPISINYRT
In data set [7], B11 registered a Kd of 32 nM.

B12: monobody DAM28 displayed on yeast (designed binder)
chain: MAASSVPTKLEVVAATPTSLLISWDAPAVTVDHYVITYGETGGNSPVQEFTVPGSKSTATISGLKPGVDYTITVYAYEYWEYEYSSYSPISINYRT
Consider B12, for which the Kd in [7] was determined as 68 nM.

B13: D-pY peptide 5-carboxyfluoresceine-EPQpYEEIPIYLK-CONH2 in D-configuration (peptide)
peptide: 5FAM-[dE][dP][dQ][dpY][dE][dE][dI][dP][dI][dY][dL][dK]-NH2
notes: also called D-pYEEI peptide; D-phospho tyrosine (pY) peptide; source: synthetic peptide, bought: Peptide Synthetics (UK)
As for B13, the Kd in [9] is ~5000 nM.

B14: L-monobody DAM21 (recombinant) (designed binder)
chain: ASSVPTKLEVVAATPTSLLISWDAPAVTVDHYVITYGETGGNSPVQEFTVPGSKSTATISGLKPGVDYTITVYASDYYDGEISWYSPISINYRT
In turn, B14 came in with a Kd in data set [8] of 11.9 nM.

B15: monobody DAM21 displayed on yeast (designed binder)
chain: ASSVPTKLEVVAATPTSLLISWDAPAVTVDHYVITYGETGGNSPVQEFTVPGSKSTATISGLKPGVDYTITVYASDYYDGEISWYSPISINYRT
In turn, B15 registered a Kd in data set [7] of 20 nM.
